Assay results from doi:10.1101/191742.
“And” between values parts separate entries of the source, which are not always exact repeats. Equal entries are not always repeated. Where two headings read alike, the source gives them in different places.

Key:
Test in all cases: single-molecule diffusometry in an ABEL trap
[1] = target: Nicotiana tabacum Rubisco activase S379C (Nt-Rca-S379C) (Nicotiana tabacum)
[2] = target: Nicotiana tabacum Rubisco activase S379C (Nt-Rca-S379C) (Nicotiana tabacum); remark: listed apart in the source
[3] = target: Nicotiana tabacum Rubisco activase S379C (Nt-Rca-S379C) (Nicotiana tabacum); remark: listed apart in the source
[4] = target: Nicotiana tabacum Rubisco activase S379C (Nt-Rca-S379C) (Nicotiana tabacum); remark: listed apart in the source
[5] = target: Nicotiana tabacum Rubisco activase S379C (Nt-Rca-S379C) (Nicotiana tabacum); remark: listed apart in the source

For “Nicotiana tabacum Rubisco activase S379C (Nt-Rca-S379C) (enzyme)”, the rate of subunit exchange [1] was > 0.2 s⁻¹, the equilibrium constant for hexamer formation from dimers (Kd 2-4 x Kd 4-6) [2] was 0.2 μM^2 and the rate of subunit exchange [2] was 0.1 s⁻¹. The stoichiometry N [2] was 2, the stoichiometry N [3] was 4 and 6 and > 6 and the stoichiometry N [4] was 2. For the same substance, the stoichiometry N [5] was 4 and 6.
